Measured values as given in the DeepSol protein solubility set.

assay: soluble on expression in E. coli; label from the status in PepcDB or PDB records

Soluble on expression in E. coli, not soluble:
MGSDKIHHHHHHMQVEGLSINLATIREQCGFAEAVDICLKHGITAIAPWRDQVAAIGLGEAGRIVRANGLKLTGLCRGGFFPAPDASGREKAIDDNRRAVDEAAELGADCLVLVAGGLPGGSKNIDAARRMVVEGIAAVLPHARAAGVPLAIEPLHPMYAADRACVNTLGQALDICETLGPGVGVAIDVYHVWWDPDLANQIARAGKMKAILAHHICDWLVPTKDMLTDRGMMGDGVIDLKGIRRRIEAAGFHGAQEVEIFSADNWWKRPADEVIATCVERYRNCC, MGSDKIHHHHHHMQYIHVVNGDVAGNTLRQALAQAARPDPVVVLRDDLAVGPLVDVDSTGSIRSGFWQRVAPHTDIDFAAEMRQALDQLQKLRQSDMEIAIWHGQSAADQLMLRRVVFHLYQAPQRINEVAMDLRELELPPQAGLAAIGMYSPARLARRFSTIAPVSVLRLGRLGYEWQQNVRENADVRLWKGNTLVAAAYHSIDDIIMERAPSEWTPAAEVVGSVMGAIEGLLASDWFVFWRCRELISMGRMVLRGNADSLDTCELRRHVIASAE, MGSDKIHHHHHHMRAHCRHSLWRKENMMESKIYPHEVSLETIDSMPDEYRDTLIHQLLANGEGELSAGDTYIDSFYPLAPDADERYICAQFAAEEVDHFRRFSRLLAELEVDTSHMLSQKKAERRYFAAESMTTDFRSWEERAAFSFLCELEGHYQIKEMVSSSYLPLRAEAEAVLKEEARHFSHGALLMRRAAKDGDARARAQDALDRLYPMAMDMFGRSDSHRSDAAVSWGLRQYTNGQLRDRYRDDVRGHIQRLGYEVPDETARRKYF, MGSDKIHHHHHHMRDLNRLDDLLQGYEFMKKINDNWEIIENGLNLSDYEIEHLRKRITNLVIASGGNSSNEVVDLRVSKLQNKIFELAKDRLDSDLDSLADSLKNMMTRITSIELTNEQVLYMLNRLYGLDAGSIEVYVDSVSGDDTAGTGEKNKPFKTINKATMNFPRVFNSNTLRLWINPGRYDEDVIIPPLSGVTLYILSSNYETVDPAAGPTTCQIRSISVSDTSGYIYIAGIEQTNTAGTTKNYFIKAIRCGFVRITKCRMAFNTKAIDPFTAVFIDACSADVNGCYFASQNVDVRGYNTARVEVQNTTHGAKSAIGLYPQSADIFNLNSGTWEADTPTKLSGGGVVRT, MGSDKIHHHHHHMRDMCSISGIIVKDNQISAKYSIDMMKILKHRGRDNSGLLLDDEVIYFNDFEDVEDLEEEMIGNLSLAHNRLAIVGRYGVQPIPNEDETIWLVCNGEIYNYIELREYLKQNHEFRTDSDNEVIIHLYEEEKLEELDGDYAFAIYDKSKNVVRLARDMFGVKPLFYVDRDKYFAFASERKALWHLLINIDGCERDLDELNSKIKTLKPNSQLIYYLDDNRFEIIEGFKKLELNYMKERSYEEAKEYLDRALKNSVLKRVRGLDKVGIICSGGVDSSLIAKLASLYCEVILYAVGTENSEDLIYAERLAKDLNLKLRKKIISEEEYEEYVFKVAKAIDEVDLMKIGVGIPIYVASEMANEDGLKVVLSGQGADELFGGYARHERIYRERGEEELKKELLKDVYNLYKVNLERDDHCTMANGVELRVPFLDEEVVEIALSIPIEYKMSELSNRPYAESNISLKSEPINGLKNTNLNIKCVRSVRKKILRDVASQYLPDYIAYRPKKAAQYGSGGEKMIYKVAKKYGFSKKRINEFLDMLKRKIVSEF, MGSDKIHHHHHHMREIDVHPAFTDLNGSGPDPDLSPLPVVARVGSYSMGWRVEAHAHQRGQLMFVTNGSMRVETRDGSWITPPGRACWIPSAAVHSAIYTQASKMQTVLIAPELLETLPKRCCVIKLTPLLRELVSQAVAINNQYTLHSREHRLMQVLVDQISTAQQAPLFLPEGRDPRLRRVTESLHQNPGDDRSIEAWAQIAGASARTLARLFQKETGMTYSSWRQQLCLIRAVEMLTEGASVTNIALALGYESTAGFTSMFTRSMGESPSNYLTRWSQETTASE, MGSDKIHHHHHHMRESPLILPFDPAGIALDRSRGLSQQLYQALRARVLDGRLSSGTRLPATRDLAAMLALSRNSVVRAYDQLYAEGFIESRVGDGTYVSRLPKLSTQVSTGLSLGLSTGLSTFRQENTEDLSSGRHISAPLQRLKNNHLPPPRSGLPRAFRVGIPAFDLFPFDVWAKLQAGFWRNPSPAQLGYGDPAGEPALRDLIAAYLRRSRGLSCTAEQIVITSGAQQAISLCAQLLLQPGDGVAVENPGYRAAAHAFTLAGGRVCGVPVDEDGLDCGRLEQLTDCRLTYVTPAHQYPTGVTMSLARRLALLAWAERSDGWIIEDDYDGEYRYSGAPLAPLAALDRHGRVLYVGTFGKIAFPALRLGYLVLPSKLVQAFSQGRAIAVRHSEVSSQCVMAEFMARGHFQRHIRRMRKAALKRRDVLKAGWPVDIPGLGAMPEVAAGLHVKVNVDNFAREQELVAKAEAVEVEVTPLSNFWLADCEVPVDKRAGLVLGFAAVPEGEIAEALMKLRKVWRK, MGSDKIHHHHHHMRETPFRLLLDARACRKKGSAAILQRQRERLVEMVTYARTCSPYYRQLYQGLPARITDPRLLPVTTKAALMAHFDDWVTDPAVTLEGTQSFVADPSLLGEKFLNRYTAATTSGTTGTRGLFLLDTRTLAVSKALTFRMLSSWLTPADLMGIIRGRGRIAMVVATGGHFASAAAAAALRKGPARHSVRVFPVQTPIPDLVAQLNSFRPALLAPYASTGRLLASEQEAGRLTIQPVAVILSAEGLPAGEYARISGAFGAKVRQGYAATECPFLSYSCQEGWLHVNSDWAILEPVDANHEPVPPGQPSHTVLLSNLANRIQPILRYDLGDSVTARTDPCRCGDPTPAIHVQGRNAELLTLQGNRLAVAVTPLTLSTALDRVQGLSKGQIIQTGPQSLSLRLQPAAGADPENVWESARSEITRALTSHGLGNVTITRDAGPPLLTPGGKHRTVVPLPP, MGSDKIHHHHHHMRFRERRFYMFYGKLQGENGDRFRAALQTMQELFGSVYASDNLIGLQRAGGFREDKKFVETLRRNAQTQQELSIAWRLHTLLWAAQNVMHLPGDFVECGVWKGFCFAFLTDYLDFAKSDKTLYLYDTYQGIPEAMNSEKRSNQVYEKDIAQDPNAILKVVQQRFANVPNARIVQGMVPDSFAEACPERIALLHIDMNSAASEIAALEALFDKVVPGGMIVFDDYGWTGYAAQRHAENAFMAARGHTVLEIPTGQGLVIKH, MGSDKIHHHHHHMRFWDIRRVENVSLNLQLENGKLEKPRYNKSTSKGFRVLKNGFWGIFEGNVADDEGLRQAEKNAFTQGDGDIEEIATKGRYRMRVKRDPQDMSIEEKVELLKDLEKIIRDVCVSTKLVYFENRRVLQYRDSCGSEVEYEVLRTGVSIMGVGKGRSLQFLSKRQMRVGGYEVLDGVDEKAYEIVEVLPKLVNALAPPSGEMSVVMDSSLAGVFVHEAFGHAVEADHVLQGATVLKGRLNEKVADESVTIIDDPTLPEFGFFPFDDEGVRAEKKVIVEDGVLKSFLHSRETAKKLGGVAGNARSQGVDVPIVRMSNTYIDTHHYSFDELLEECRDGVYLVGSRGGETNPATGYFHFNAQYGYLIKNGELAEMVRDVSLSGNTLEILRNVKIGREIEFDPGFCGKAGQLVPVSDGSPPVLCRATVGGA, MGSDKIHHHHHHMRFYPWLQWLKRKTAGAGCVHQFIQTQCPAPAESGTQEPPPAEQDTQTESNAMPSLALRIGDKNFRATLYDNDSTRSLLKKLPLTLTMDELNGNEKFYFFSEKLPSASERVGSIKTGDLMLYGSDCLVLFYESFPTSYSYTRLGTVDDVTGLANALGSGSVEVTFSIN, MGSDKIHHHHHHMRGWILYKETATQLKPEWYEIERLLAAAKADNIELEVYAPDEFDLTVTREDNKSILLNGQPVELPDFIIPRMGSGTTYFALAIIRHLERLGVYCLNPSKAIEIVKDKLFSQQLLAEKNLPTPKTMLVKFPVDIDLVERHLGFPVVIKTLSGSQGSGVFLSHKAREFDDLMQLIEATNKNANIILQEFIANSHGRDLRVFTIGGRVAGCYERRGQEDSFKANVSAGGSARPFDITPEIEWLATQTANILDLDVAGIDLLFDNGHYKICEANSSPGFEGLESCLNVDIAAQILHFIRIRLGMFNKDEKNSDPQLTHAGPALANNVTSSKAAE, MGSDKIHHHHHHMRHDKFAGPAYTIQIVSNALDMLELLAMRPANPSLGRLAGSLNLTRNKAYRLLSTLCERGLVEQDPETGTYAIGVAALELAQRLIRQAPVVNHAHPIMEELARKHDEAVYMTVLRGDDVVFLDMVDCERQVKATPLIGRRFPYFTNAAGKAIKALEGADPLNLLKKRGRKNNSLDVGSLLSELHEIRHKGVAVDCGGLGDGIVSVAVAVRDYAGKVVGAITMLVPSFRAVADRLESEIIPSLQEGADLLSMKLGHGPC, MGSDKIHHHHHHMRIAIIEDEPLAAEKLAGYIQRQWPEAKIIATLSSVDAVIEFFNQPQNLDLLFSDIELSDGQVFSALEQIDVPCPVIFTTSYNDYWMNAFQNQGIEYLLKPFSFKRFSQAVANYQALFEQRSKIETTSFKQRFIIKQQGASEMLNVAEIHCFRAANGTILAGDKQGQYHILSDNNLSQLEAQLDPKVFFRINRADIININSLIKFETYTKETLALYIKGYSEALVTSKTRTANFRKWLEA, MGSDKIHHHHHHMRIAIVTHVVRHNDGQGRVNYEIARAALAENYEVTLVASHVAPELLADPRVRWVPVKVGRFWPSNLVKQQVFALKSAWWLRAHRGEYDVLHVNGFISWISADVNTAHFVHGGWFKSPYYPFGLTKGMWSAYQYVYTRVNTALERWAYRRSRAITAVSQKVADEIAGLGIDSRKISVIYNGVDGSAFAGAQPDRAAFKLPDDAFLLLFVGDLRTPRKNLGTVLKALTKLPANVHLAVAGYLPGSPYPDEARALGIDSRVHFLGLVKNMPTLMSSVDAYVFPSRYEAMSLSLLEAMAAGLPVVTARTAGGAEIITRECGIVLEDPDDPAALAQAIGSLAASRDTCRAMGDAARELMTRFGWAHMGAQYVALYRRIGQPTQPSAFERVEHAVTQEQS, MGSDKIHHHHHHMRIDVDAFKVLEVLVEEGSFAKAAERLHKAQSAVSYQIKKLEQHLGVSLLSREQYRAELTAEGRVILAEGQRLLSHLANIEHLASRFSEGWEPKLELVIDGALPMEPIMTALKRMAEHQIPTKIQLNMEFLGGVQHRFERDNADLMLVKDYRTGPYYYAKPLPAITSVLLAAPHHPLAGRKALTLTELQQHVELTIEDSSPVKTYRDELQFGGDKVFYLSGFIMKKNALLKGLGFGWMPDFLVRDELKAGLLTEIDFVGGSRYTFVPQLVSTLERPLGRAGRLFTELILEEFAKEPMGIPEGLG, MGSDKIHHHHHHMRILLTGIPSYLQRTVSGVSGAEVRHRPYFDEVRTKKELIEQVKKIANTGNYLIGEGAAHALRGHDVTYLPFWHLVNSRNSDEAYESLNEEFDICVFASANLLRPGYSADLEAEVFEKLKMPVVIMGIGIQRREGLKENLPAGTLKFLEVLRNKESFFLTRGYFTAEFLREQGMKFVKPTGCPSLFFAPAEMKRSLAALANPELASSQKIAFGGYLGSVADTIVDAHALLKPDSVASYVIQDEVVAYNLSLPVDDDLPVYDRASGRITGQTAYKHSEKWQRKHELLVFFDTNQWRSWVSARDLCFGRRFHGCIIGMQAGVPSLMIAVDDRMREMLEFIGFPYMEAAVWNREQDRKAYLASFLSKIDSQAVIDRYSACETNFRNALAHVGL, MGSDKIHHHHHHMRILVTNDDGIQSKGIIVLAELLSEEHEVFVVAPDKERSATGHSITIHVPLWMKKVFISERVVAYSTTGTPADCVKLAYNVVMDKRVDLIVSGVNRGPNMGMDILHSGTVSGAMEGAMMNIPSIAISSANYESPDFEGAARFLIDFLKEFDFSLLDPFTMLNINVPAGEIKGWRFTRQSRRRWNDYFEERVSPFGEKYYWMMGEVIEDDDRDDVDYKAVREGYVSITPIHPFLTNEQCLKKLREVYD
